Columns and labels:
Assay in all cases: Kinetic parameters for hydrolysis of maltose and isomaltose
Conditions in all cases: other: At 45°C using 0.05 M NaOAc, pH 4.5
[1] = substrate: OC[C@H]1O[C@H](OC[C@H]2OC(O)[C@H](O)[C@@H](O)[C@@H]2O)[C@H](O)[C@@H](O)[C@@H]1O; assay type: biochemical, Aspergillus niger
Procedure: (§1) 50 microL enzyme diluted in sodium acetate is added,and the activity was determined using the AGU standard method described above. The kinetic parameters: Kcat and Km are measured at 45°C by adding 50 microL enzyme diluted in sodium acetate to preheated 750 microL substrate. Aliquots of 100 microL are removed after 0, 3, 6, 9 and 12 minutes and transferred to 100 microL 0.4M Sodium hydroxide to stop the reaction. A blank is included.
(§2) 20 microL is transferred to a Micro titre plates and 200 microL GOD-Perid solution is added. Absorbance is measured at 650 nm after 30 minutes incubation at room temperature. Glucose is used as standard, and the specific activity is calculated as kcat (sec. ^-1)
(§3) Kinetic Parameters for Hydrolysis of Maltose and Isomaltose by Aspergillus niger AMG and the recombinant Talaromyces emersonii AMG expressed in A. niger.

[2] = substrate: OC[C@H]1O[C@H](O[C@H]2[C@H](O)[C@@H](O)[C@H](O)O[C@@H]2CO)[C@H](O)[C@@H](O)[C@@H]1O; assay type: biochemical, Aspergillus niger
Procedure: as §1, §2, §3

[3] = substrate: OC[C@H]1O[C@H](OC[C@H]2OC(O)[C@H](O)[C@@H](O)[C@@H]2O)[C@H](O)[C@@H](O)[C@@H]1O; assay type: biochemical, Talaromyces emersonii
Procedure: as §1, §2, §3

[4] = substrate: OC[C@H]1O[C@H](O[C@H]2[C@H](O)[C@@H](O)[C@H](O)O[C@@H]2CO)[C@H](O)[C@@H](O)[C@@H]1O; assay type: biochemical, Talaromyces emersonii
Procedure: as §1, §2, §3

Protein | Km [1] | kcat [1] | kcat/Km [1] | Km [2] | kcat [2] | kcat/Km [2] | Km [3] | kcat [3] | kcat/Km [3] | Km [4] | kcat [4] | kcat/Km [4]
Aspergillus niger AMG (glucoamylase G1), SEQ ID NO: 9 (Aspergillus niger) (protein) ATLDSWLSNEATVARTAILNNIGADGAWVSGADSGIVVASPSTDNPDYFYTWTRDSGLVLKTLVDLFRNGDTSLLSTIENYISAQAIVQGISNPSGDLSSGAGLGEPKFNVDETAYTGSWGRPQRDGPALRATAMIGFGQWLLDNGYTSTATDIVWPLVRNDLSYVAQYWNQTGYDLWEEVNGSSFFTIAVQHRALVEGSAFATAVGSSCSWCDSQAPEILCYLQSFWTGSFILANFDSSRSGKDANTLLGSIHTFDPEAACDDSTFQPCSPRALANHKEVVDSFRSIYTLNDGLSDSEAVAVGRYPEDTYYNGNPWFLCTLAAAEQLYDALYQWDKQGSLEVTDVSLDFFKALYSDAATGTYSSSSSTYSSIVDAVKTFADGFVSIVETHAASNGSMSEQYDKSDGEQLSARDLTWSYAALLTANNRRNSVVPASWGETSASSVPGTCAATSAIGTYSSVTVTSWPSIVATGGTTTTATPTGSGSVTSTSKTTATASKTSTSTSSTSCTTPTAVAVTFDLTATTTYGENIYLVGSISQLGDWETSDGIALSADKYTSSDPLWYVTVTLPAGESFEYKFIRIESDDSVEWESDPNREYTVPQACGTSTATVTDTWR | 19.8 mM | 0.41 s⁻¹ | 21 M⁻¹ s⁻¹ | 1.2 mM | 10.7 s⁻¹ | 8800 M⁻¹ s⁻¹ | – | – | – | – | – | –
recombinant Talaromyces emersonii AMG (glucoamylase) expressed in A. niger, SEQ ID NO: 7 (Rasamsonia emersonii) (protein) ATGSLDSFLATETPIALQGVLNNIGPNGADVAGASAGIVVASPSRSDPNYFYSWTRDAALTAKYLVDAFIAGNKDLEQTIQQYISAQAKVQTISNPSGDLSTGGLGEPKFNVNETAFTGPWGRPQRDGPALRATALIAYANYLIDNGEASTADEIIWPIVQNDLSYITQYWNSSTFDLWEEVEGSSFFTTAVQHRALVEGNALATRLNHTCSNCVSQAPQVLCFLQSYWTGSYVLANFGGSGRSGKDVNSILGSIHTFDPAGGCDDSTFQPCSARALANHKVVTDSFRSIYAINSGIAEGSAVAVGRYPEDVYQGGNPWYLATAAAAEQLYDAIYQWKKIGSISITDVSLPFFQDIYPSAAVGTYNSGSTTFNDIISAVQTYGDGYLSIVEKYTPSDGSLTEQFSRTDGTPLSASALTWSYASLLTASARRQSVVPASWGESSASSVPAVCSATSATGPYSTATNTVWPSSGSGSSTTTSSAPCTTPTSVAVTFDEIVSTSYGETIYLAGSIPELGNWSTASAIPLRADAYTNSNPLWYVTVNLPPGTSFEYKFFKNQTDGTIVWEDDPNRSYTVPAYCGQTTAILDDSWQ | – | – | – | – | – | – | 53.6 mM | 2.70 s⁻¹ | 50 M⁻¹ s⁻¹ | 3.8 mM | 30.6 s⁻¹ | 8100 M⁻¹ s⁻¹

— patent EP1032654B1, “THERMOSTABLE GLUCOAMYLASE” (Novozymes A/S, priority 1997, dated 1999)
